Test results published in US20040110933A1.

Key:
[1] = target: biotinylated CD44Fc (human) (UniProt P16070); experiment: phage ELISA on b-CD44Fc, no competitor
[2] = target: biotinylated CD44Fc (human) (UniProt P16070); experiment: competition phage ELISA on b-CD44Fc, competitor S5 (450 ng) pre-incubated

B1: BE-A11 (Fab displayed on phage) (Fab, V domains shown)
VH: EVQLLESGGGLVQPGGSLRLSCAASGFTFSKYSMEWVRQAPGKGLEWVSRIYPSGGPTLYADSVKGRFTISRDNSKNTLYLQMNSLRAEDTAVYYCARDSYGMDVWGQGTTVTVSS
VL: QSVLTQPASVSGSPGQSITISCTGTSSDVGGYSYVSWYQQHPGKAPKLMIYEVSNRPSGVSNRFSGSKSGNTASLTISGLQAEDEADYYCNSYTSSSTKMFGGGTRLTVL
[1]
  phage ELISA signal (column CD44): 1.08
[2]
  phage ELISA signal (column CD44 + S5): 0.261
